Results reported in IntAct's records for PubMed 31025394.

B1: Myosin-binding protein C, slow-type (Homo sapiens), Q00872-4 (parent)
chain: MPEPTKKEENEVPAPAPPPEEPSKEKEAGTTPAKDEEEVSPPSALPPGLGSRALERKDSDWTLVETPPGEEQAKQNANSQLSILFIEKPQGGTVKVGEDITFIAKVKAEDLLRKPTIKWFKGKWMDLASKAGKHLQLKETFERHSRVYTFEMQIIKAKDNFAGNYRCEVTYKDKFDSCSFDLEVHESTGTTPNIDIRSAFKRSGEGQEDAGELDFSGLLKRREVKQQEEEPQVDVWELLKNAKPSEYEKIAFQYGITDLRGMLKRLKRMRREEKKSAAFAKILDPAYQVDKGGRVRFVVELADPKLEVKWYKNGQEIRPSTKYIFEHKGCQRILFINNCQMTDDSEYYVTAGDEKCSTELFVREPPIMVTKQLEDTTAYCGERVELECEVSEDDANVKWFKNGEEIIPGPKSRYRIRVEGKKHILIIEGATKADAAEYSVMTTGGQSSAKLSVDLKPLKILTPLTDQTVNLGKEICLKCEISENIPGKWTKNGLPVQESDRLKVVHKGRIHKLVIANALTEDEGDYVFAPDAYNVTLPAKVHVIDPPKIILDGLDADNTVTVIAGNKLRLEIPISGEPPPKAMWSRGDKAIMEGSGRIRTESYPDSSTLVIDIAERDDSGVYHINLKNEAGEAHASIKVKVVDFPDPPVAPTVTEVGDDWCIMNWEPPAYDGGSPILGYFIERKKKQSSRWMRLNFDLCKETTFEPKKMIEGVAYEVRIFAVNAIGISKPSMPSRPFVPLAVTSPPTLLTVDSVTDTTVTMRWRPPDHIGAAGLDGYVLEYCFEGTEDWIVANKDLIDKTKFTITGLPTDAKIFVRVKAVNAAGASEPKYYSQPILVKEIIEPPKIRIPRHLKQTYIRRVGEAVNLVIPFQGKPRPELTWKKDGAEIDKNQINIRNSETDTIIFIRKAERSHSGKYDLQVKVDKFVETASIDIQIIDRPGPPQIVKIEDVWGENVALTWTPPKDDGNAAITGYTIQKADKKSMEWFTVIEHYHRTSATITELVIGNEYYFRVFSENMCGLSEDATMTKESAVIARDGKIYKNPVYEDFDFSEAPMFTQPLVNTYAIAGYNATLNCSVRGNPKPKITWMKNKVAIVDDPRYRMFSNQGVCTLEIRKPSPYDGGTYCCKAVNDLGTVEIECKLEVKVIYQGVNTPGQPVFLEGQQQSLHNKDF

Key:
acts_rabit ACTA1, P68135 = variants of: B1; details: with acts_rabit ACTA1, P68135
[1] = variants of: B1; details: with myh11_rabit MYH11, P35748
Sequence of myh11_rabit MYH11, P35748 (P35748 whole entry): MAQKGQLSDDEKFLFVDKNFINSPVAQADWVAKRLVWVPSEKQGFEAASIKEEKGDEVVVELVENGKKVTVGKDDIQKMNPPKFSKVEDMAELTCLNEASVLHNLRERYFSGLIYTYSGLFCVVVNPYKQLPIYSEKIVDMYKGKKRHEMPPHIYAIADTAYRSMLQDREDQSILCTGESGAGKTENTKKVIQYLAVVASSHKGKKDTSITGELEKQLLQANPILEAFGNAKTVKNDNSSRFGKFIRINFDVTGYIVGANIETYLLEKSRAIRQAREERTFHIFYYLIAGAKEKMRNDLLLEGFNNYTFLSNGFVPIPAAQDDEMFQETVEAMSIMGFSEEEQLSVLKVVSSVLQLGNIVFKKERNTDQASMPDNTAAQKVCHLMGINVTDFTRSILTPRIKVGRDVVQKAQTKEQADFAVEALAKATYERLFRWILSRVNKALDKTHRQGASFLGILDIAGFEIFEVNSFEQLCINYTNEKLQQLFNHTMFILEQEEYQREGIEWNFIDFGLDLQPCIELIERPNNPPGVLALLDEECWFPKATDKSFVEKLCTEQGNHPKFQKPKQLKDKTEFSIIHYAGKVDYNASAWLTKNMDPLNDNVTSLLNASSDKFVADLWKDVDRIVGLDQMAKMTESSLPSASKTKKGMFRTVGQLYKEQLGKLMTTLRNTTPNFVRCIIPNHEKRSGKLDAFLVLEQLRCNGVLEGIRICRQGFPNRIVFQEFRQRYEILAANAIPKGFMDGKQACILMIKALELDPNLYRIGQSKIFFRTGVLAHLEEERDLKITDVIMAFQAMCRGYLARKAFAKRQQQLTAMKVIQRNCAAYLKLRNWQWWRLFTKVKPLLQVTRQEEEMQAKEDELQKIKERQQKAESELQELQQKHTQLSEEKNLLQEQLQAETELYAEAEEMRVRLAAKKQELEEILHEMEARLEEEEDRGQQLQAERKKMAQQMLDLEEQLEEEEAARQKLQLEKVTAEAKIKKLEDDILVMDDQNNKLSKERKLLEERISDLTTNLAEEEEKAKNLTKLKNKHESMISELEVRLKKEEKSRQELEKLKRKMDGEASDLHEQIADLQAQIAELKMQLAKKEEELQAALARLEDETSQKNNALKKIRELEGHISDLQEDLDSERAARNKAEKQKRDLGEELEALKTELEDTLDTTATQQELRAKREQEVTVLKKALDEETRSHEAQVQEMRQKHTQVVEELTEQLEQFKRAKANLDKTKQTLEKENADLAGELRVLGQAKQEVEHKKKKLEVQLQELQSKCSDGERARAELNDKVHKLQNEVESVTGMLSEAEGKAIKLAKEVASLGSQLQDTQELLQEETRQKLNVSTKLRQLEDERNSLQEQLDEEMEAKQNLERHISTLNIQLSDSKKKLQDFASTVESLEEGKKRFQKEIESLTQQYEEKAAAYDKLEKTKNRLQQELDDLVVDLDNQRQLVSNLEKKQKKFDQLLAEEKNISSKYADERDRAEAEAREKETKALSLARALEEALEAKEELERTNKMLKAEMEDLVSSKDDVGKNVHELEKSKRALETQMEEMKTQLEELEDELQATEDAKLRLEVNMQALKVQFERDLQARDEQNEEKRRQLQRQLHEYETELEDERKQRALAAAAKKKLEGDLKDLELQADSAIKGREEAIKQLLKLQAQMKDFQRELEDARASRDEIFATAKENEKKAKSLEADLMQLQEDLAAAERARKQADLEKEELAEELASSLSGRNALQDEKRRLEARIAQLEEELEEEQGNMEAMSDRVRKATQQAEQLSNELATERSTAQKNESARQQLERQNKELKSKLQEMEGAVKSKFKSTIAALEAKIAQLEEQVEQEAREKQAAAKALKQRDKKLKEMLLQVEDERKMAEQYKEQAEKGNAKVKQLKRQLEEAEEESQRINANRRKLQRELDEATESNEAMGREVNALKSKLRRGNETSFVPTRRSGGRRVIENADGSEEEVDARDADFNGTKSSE

| Variant | effect of a mutation on the interaction (acts_rabit ACTA1, P68135) | effect of a mutation on the interaction [1] |
| --- | --- | --- |
| Y247H | increasing interaction strength | increasing interaction strength |
| E248K | increasing interaction strength | increasing interaction strength |
